The text below walks through data of paper PMC9784774, “Neutralization Epitopes in Trimer and Pentamer Complexes Recognized by Potent Cytomegalovirus-Neutralizing Human Monoclonal Antibodies” (Microbiology Spectrum, 2022).

Holding throughout (conditions): both partners purified
The target in experiment [1] is T1, recombinant gH/gL/UL128/UL130/UL131A pentamer (wild type) (Human cytomegalovirus VR1814 (gH strain …, UniProt Q6SW67;F5HCH8;PDB)).
T1 construct: also called CMV pentamer; HCMV pentamer complex; source: HEK293F, cotransfected with gH, gL, UL128, UL130 and UL131A plasmids, purified (Ni-NTA, SEC); not shown: His6, C-terminal, kept; copies: + + + +
Description: ELISA; pentamer, trimer or pentamer mutant coated at 100 ng/well (carbonate bicarbonate buffer pH 7.4, overnight 4°C); purified antibodies in eight serial 3-fold dilutions from 1 μg/mL, 37°C 1 h; detected with goat anti-human IgG (H+L)-HRP.
T1 sequence (F5HCH8 whole entry, looked up, chain 1 of 2): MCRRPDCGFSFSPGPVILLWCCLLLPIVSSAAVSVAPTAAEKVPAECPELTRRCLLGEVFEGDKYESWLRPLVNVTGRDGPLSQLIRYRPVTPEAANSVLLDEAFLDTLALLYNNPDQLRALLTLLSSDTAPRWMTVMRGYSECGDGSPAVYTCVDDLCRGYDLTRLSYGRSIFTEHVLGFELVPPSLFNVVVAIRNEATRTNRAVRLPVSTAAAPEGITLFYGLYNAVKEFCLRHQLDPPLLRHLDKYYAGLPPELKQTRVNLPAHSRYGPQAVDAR
T1 sequence (Q6SW67 whole entry, looked up, chain 2 of 2): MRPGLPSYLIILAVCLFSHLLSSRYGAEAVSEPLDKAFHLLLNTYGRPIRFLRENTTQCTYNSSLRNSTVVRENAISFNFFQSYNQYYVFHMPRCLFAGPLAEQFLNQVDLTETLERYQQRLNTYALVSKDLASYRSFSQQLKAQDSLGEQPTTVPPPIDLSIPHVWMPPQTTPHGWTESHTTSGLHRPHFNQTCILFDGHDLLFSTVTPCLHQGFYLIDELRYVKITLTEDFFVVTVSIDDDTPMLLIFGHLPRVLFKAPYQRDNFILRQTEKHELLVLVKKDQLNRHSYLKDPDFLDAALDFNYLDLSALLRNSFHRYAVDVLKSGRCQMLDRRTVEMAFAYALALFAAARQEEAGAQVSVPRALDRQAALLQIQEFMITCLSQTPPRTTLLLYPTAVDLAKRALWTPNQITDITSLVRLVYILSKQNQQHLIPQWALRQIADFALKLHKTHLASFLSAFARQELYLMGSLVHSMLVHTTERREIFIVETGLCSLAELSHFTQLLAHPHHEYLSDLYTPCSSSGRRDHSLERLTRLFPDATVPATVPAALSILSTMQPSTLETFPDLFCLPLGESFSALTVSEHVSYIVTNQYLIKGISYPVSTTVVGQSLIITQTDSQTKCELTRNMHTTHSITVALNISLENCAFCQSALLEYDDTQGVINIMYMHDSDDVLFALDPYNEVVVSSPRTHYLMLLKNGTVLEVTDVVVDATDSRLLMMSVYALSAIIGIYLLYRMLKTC

For experiment [2], the target named is T2, recombinant gH/gL/UL128/UL130/UL131A pentamer (wild type) (Human cytomegalovirus VR1814 (gH strain …, UniProt Q6SW67;F5HCH8;PDB)).
T2 construct: also called CMV pentamer; HCMV pentamer complex; source: HEK293F, cotransfected with gH, gL, UL128, UL130 and UL131A plasmids, purified (Ni-NTA, SEC); not shown: His6, C-terminal, kept; copies: + + + +
Description: SPR; Biacore X100, CM5 chip, RT, 1:1 binding model; methods: antibody (4 μg/mL) captured by anti-human Fc IgG to about 100 RU, pentamer or trimer in five 2-fold dilutions injected at 30 μL/min, 90 s association, 600 s dissociation (the legend of Fig. 5 tells the reverse orientation). Background: SPR reads the build-up and loss of mass on a sensor chip optically.
T2 sequence (F5HCH8 whole entry, looked up, chain 1 of 2): as the sequence (F5HCH8 whole entry, looked up, chain 1 of 2) above
T2 sequence (Q6SW67 whole entry, looked up, chain 2 of 2): as the sequence (Q6SW67 whole entry, looked up, chain 2 of 2) above

In experiment [3] the target is T2, recombinant gH/gL/UL128/UL130/UL131A …. The description is as above. The source holds these as a separate data set.
The target of experiment [4] is T1, recombinant gH/gL/UL128/UL130/UL131A …. Described as above. The source holds these as a separate data set.

B1: MAb 8I21 (antibody, V domains shown)
VH: LVELVESGGGVVQPGRSLRLSCAASGFTFSSDGMHWVRQSPGRGLEWVAFISSDGSTPYYADSVKGRFTISRDNSKNTLYLQMNSLRAEDTAMYFCAKDWALFRWLRTFDHWGQGTLVTVSS
VL: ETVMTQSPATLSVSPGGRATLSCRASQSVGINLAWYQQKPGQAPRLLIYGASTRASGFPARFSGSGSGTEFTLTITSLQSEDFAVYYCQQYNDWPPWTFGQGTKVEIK
notes: source: 293F cells, transient transfection, purified (protein A)
In the case of B1, the binding result in experiment [1] is “binds”.

B2: MAb 9I6 (antibody, V domains shown)
VH: EVQLVQSGAEVKKPGESLKISCRESGDTFPAYWIAWVRQMPGKGLEWMGIIYPIDSETTYSPSFQGQVTISADKSINTAYLQWSSLKASDSAIYYCARGTSTGLREAFHIWGQGTMVTVSS
VL: DVVMTQSPLSLAVTLGQPAYISCRSSQSLGYSDGNTYLNWFQQRPGQSPRRLIYEVSNRDSGVPDRFSGSGSGTDFTLKISRVEAEDVGTYYCMQGTHWPPMCSFGQGTKLEIK
notes: as for B1
One may read the Kd as the concentration at which binding is half-saturated. As usually defined, the koff is the rate constant with which the complex falls apart. A word on the kon: it is a measure of how fast the partners come together. Regarding B2, in experiment [2], the Kd was determined as 0.82 nM, the koff was 0.000139 s⁻¹ and the kon was 168000 M⁻¹ s⁻¹. Further, the Kd in experiment [3] stood at 0.484 nM.

B3: MAb MSL-109 (antibody, V domains shown)
VH: EEQVLESGGGLVKPGGSLRLSCAASGFTFSPYSVFWVRQAPGKGLEWVSSINSDSTYKYYADSVKGRFTISRDNAENSIFLQMNSLRAEDTAVYYCARDRSYYAFSSGSLSDYYYGLDVWGQGTLVTVSS
VL: DIVMTQSPLSLSVTPGEPASISCRSSQSLLHTNGYNYLDWYVQKPGQSPQLLIYLASNRASGVPDRFSGSGSGTDFTLKISRVETEDVGVYYCMQALQIPRTFGQGTKVEIK
notes: as for B1
With B3, in experiment [4], the Kd is 1.33 nM, the koff stood at 0.00156 s⁻¹ and the kon came to 1.17e+06 M⁻¹ s⁻¹.
